Literature values in article PMC5428663, “Identification of small molecule inhibitors of Interleukin-18” (Scientific Reports, 2017).

Biological target: IL-18 (Homo sapiens) (UniProt Q14116)
Sequence (Q14116 37-193): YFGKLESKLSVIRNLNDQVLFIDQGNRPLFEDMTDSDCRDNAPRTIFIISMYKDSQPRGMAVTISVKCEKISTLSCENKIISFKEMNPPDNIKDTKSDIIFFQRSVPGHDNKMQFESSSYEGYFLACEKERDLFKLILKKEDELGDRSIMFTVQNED

IL-18BP, sequence (O95998 31-194): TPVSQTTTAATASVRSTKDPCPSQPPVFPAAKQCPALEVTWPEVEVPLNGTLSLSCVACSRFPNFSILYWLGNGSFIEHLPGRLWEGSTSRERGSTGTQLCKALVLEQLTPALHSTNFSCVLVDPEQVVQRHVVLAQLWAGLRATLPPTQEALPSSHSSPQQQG

In the case of IL-18BP (from UniProt O95998), the Kd is listed as 0.4 nM.
